Measurements: patent US20090246142A1, “Triggered Self-Assembly of Nanoparticles In Vivo” (MASSACHUSETTS INSTITUTE OF TECHNOLOGY, priority 2006, published 2009)
Square brackets hold non-standard residues; d marks the D form. pY = N[C@@H](Cc1ccc(OP(=O)(O)O)cc1)C(=O)O; Ahx = NCCCCCC(=O)O

Legend:
Abl kinase = assay: Kinase-directed TSAC assembly, MRI T2 mapping; type: biochemical; details: free phosphopeptide added to Abl kinase-assembled TSACs
Description: Kinase reaction was initiated by adding indicated amount of Abl kinase (New England Biolabs). TSAC assemblies were characterized by DLS over time or MRI.
All TSAC solutions were prepared in final concentration of 10 μg Fe/ml (12 nM TSAC concentration) in 70 μl of kinase reaction buffer. TSAC mixtures were incubated at 30° C. for 3 hours after kinase additions (0, 0.05, 0.1, 0.2, 0.5 U/μl), and then MRI images were taken using a 4.7 T Bruker magnet (7 cm bore) using T2-mapping Carr-Purcell-Meiboom-Gill (CPMG) pulse sequence. To reverse assembly, 4 U/μl YOP phosphatase or 0.1 mM free pY-peptide was added to an assembled TSAC solution containing 0.2 U/μl Abl kinase. The MRI image was taken after 10 minutes at room temperature.

Crk SH2 domain = target: T1, Crk SH2 domain (Homo sapiens, UniProt P46108); assay: SH2-binding peptide-mediated TSAC assembly, dynamic light scattering
T1 construct: The Crk SH2 domain was genetically modified to contain an N-terminal cysteine; GST (N, cleaved yes); made in house; host or cells: E. coli BL21-Gold(DE3)

Crk SH2 = Crk SH2 (Homo sapiens, UniProt P46108); details: free peptide; cited from earlier work
Chain of Crk SH2 (P46108 13-118 limits assumed): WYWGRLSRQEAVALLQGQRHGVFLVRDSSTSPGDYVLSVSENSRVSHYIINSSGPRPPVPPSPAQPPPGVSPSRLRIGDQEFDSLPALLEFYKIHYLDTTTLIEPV

T1 sequence (P46108 13-118 limits assumed): as above
Chain of Abl kinase (P00521 128-379): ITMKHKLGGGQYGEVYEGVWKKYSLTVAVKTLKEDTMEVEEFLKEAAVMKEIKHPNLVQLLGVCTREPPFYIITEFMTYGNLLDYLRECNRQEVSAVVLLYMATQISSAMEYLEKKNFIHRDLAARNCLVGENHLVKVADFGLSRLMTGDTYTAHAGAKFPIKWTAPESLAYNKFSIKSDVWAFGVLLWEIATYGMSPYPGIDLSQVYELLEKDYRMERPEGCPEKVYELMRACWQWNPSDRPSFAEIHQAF

Row | Substance | effect of free substrate on kinase-directed T2 enhancement (Abl kinase) | reversal of pY TSAC / SH2 TSAC assembly by added free peptide (Crk SH2 domain; 200 μM free peptide added after 10 minute incubation) | effect of free peptide on pY TSAC / SH2 TSAC assembly (Crk SH2 domain; 200 μM free peptide present) | binding affinity to Crk SH2 (Crk SH2)
1 | TAMRA-(Ahx)SRVGEEEHVpYSFPNKQKSAEC-CONH2 [free pY-Abl substrate] | lost | – | – | –
2 | TAMRA-C(Ahx)QpYDHPNI-CONH2 ({TAMRA}-C[Ahx]Q[pY]DHPNI-NH2; not fully specified) [free pY peptide] | – | rapidly disassembled | inhibited | low μM
